Test results as given in article PMC6044691 (ACS Omega, 2017).
Residue numbers refer to the chain shown, from its start. In names and notes the source's numbering stands.

Key:
AUC = biological target: the molecule itself; assay: AUC
crystal structure = biological target: the molecule itself; assay: crystal structure

B1: N-terminal truncated Z,Z-farnesyl diphosphate synthase (ΔzFPS) (enzyme, Solanum habrochaites, UniProt B8XA40 71-303, looked up)
chain: MLDEALMPKHIALIMDGNRRWAKDKGLDVSEGHKHLFPKLKEICDISSKLGIQVITAFAFSTENWKRAKGEVDFLMQMFEELYDEFSRSGVRVSIIGCKTDLPMTLQKCIALTEETTKGNKGLHLVIALNYGGYYDILQATKSIVNKAMNGLLDVEDINKNLFDQELESKCPNPDLLIRTGGDQRVSNFLLWQLAYTEFYFTKTLFPDFGEEDLKEAIINFQQRHRRFGGHTY
Q: Which “stoichiometry N” value (AUC) does the source give for B1 here?
A: Its value is 2.

B2: ΔzFPS-H103Y mutant (enzyme, Solanum habrochaites, UniProt B8XA40 71-303, looked up)
chain: B1 chain with H33Y
Q: Does B2 bind (crystal structure)?
A: Result: binds
